Consider one molecule from CN114133451A (HANGZHOU MEDICAL COLLEGE, dated 2022).

The target in the test is T1, 重组弓形虫毒力因子ROP18 (Toxoplasma gondii, UniProt Q2PAY2 1-554).
T1 construct: also called 弓形虫棒状体蛋白18; rhoptry protein 18; not shown: vector-derived tag of pET28a (fusion protein purified on Ni-NTA)
T1 sequence (looked up): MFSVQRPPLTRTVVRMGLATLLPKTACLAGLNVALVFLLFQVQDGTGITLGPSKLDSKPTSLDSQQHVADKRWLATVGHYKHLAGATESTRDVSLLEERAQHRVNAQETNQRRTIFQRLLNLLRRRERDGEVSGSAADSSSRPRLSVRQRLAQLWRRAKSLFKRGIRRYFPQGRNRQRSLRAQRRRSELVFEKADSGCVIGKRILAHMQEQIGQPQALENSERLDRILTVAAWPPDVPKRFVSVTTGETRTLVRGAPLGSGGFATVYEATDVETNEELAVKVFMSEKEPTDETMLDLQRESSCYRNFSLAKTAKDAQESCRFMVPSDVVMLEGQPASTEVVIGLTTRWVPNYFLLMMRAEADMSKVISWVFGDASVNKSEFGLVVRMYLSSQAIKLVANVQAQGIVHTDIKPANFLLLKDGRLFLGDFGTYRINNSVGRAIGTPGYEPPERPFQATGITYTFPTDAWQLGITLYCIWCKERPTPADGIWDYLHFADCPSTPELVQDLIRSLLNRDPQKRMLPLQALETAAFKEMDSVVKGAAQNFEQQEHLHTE
The test is described as follows: SPR, Biacore T100, 1:1 binding fit. A general note: SPR reads the build-up and loss of mass on a sensor chip optically.

B1: 弓形虫毒力因子ROP18纳米抗体22号克隆株 (VHH)
VHH: QVQLVESGGGSVQAGGSLRLSCVASRYTYTYSTYCLGWFRQAPGKEREEIAIIDSDGGARYADSVKGRFTISRDNAKSTLYLHMNSLKPDDTAMYSCAAGRPAPSLGYKCMYNSRHKGTLVTVSS
notes: also called 毒力因子纳米抗体; pMECS-ROP18-22; not shown: tag from the pMECS vector (purified on a nickel column, detected with anti-His a)
Regarding B1, the Kd was 2.72 nM.

By Kd is commonly meant a measure of binding affinity in units of concentration. A higher Kd goes with a looser complex.
